# Measured values taken from patent publication US20190336574A1 (TRUSTEES OF PRINCETON UNIVERSITY, published 2019).
# T1: His6-SND1ΔC (SND1 residues 1-339) (human, UniProt Q7KZF4 1-339)
# T1 construct: not shown: N-terminal His tag (His6, His8 or His) with TEV site, pQlink vector
# T1 sequence: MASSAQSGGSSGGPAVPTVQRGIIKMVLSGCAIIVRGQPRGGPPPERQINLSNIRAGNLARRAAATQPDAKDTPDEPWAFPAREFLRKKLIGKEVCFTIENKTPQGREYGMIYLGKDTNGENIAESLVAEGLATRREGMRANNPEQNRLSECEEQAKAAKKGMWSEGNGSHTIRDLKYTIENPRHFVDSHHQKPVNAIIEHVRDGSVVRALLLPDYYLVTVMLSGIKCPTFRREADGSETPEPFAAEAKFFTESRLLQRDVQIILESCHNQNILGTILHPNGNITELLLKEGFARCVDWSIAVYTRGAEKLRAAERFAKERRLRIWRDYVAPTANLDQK
# T2: HA-SND1, full-length human, wild type (human, UniProt Q7KZF4 1-910)
# T2 construct: Full-length, HA-tagged; Expressed in HEK293T cells, tested in lysate; also called HA-tagged SND1; WT HA-SND1
# T2 sequence: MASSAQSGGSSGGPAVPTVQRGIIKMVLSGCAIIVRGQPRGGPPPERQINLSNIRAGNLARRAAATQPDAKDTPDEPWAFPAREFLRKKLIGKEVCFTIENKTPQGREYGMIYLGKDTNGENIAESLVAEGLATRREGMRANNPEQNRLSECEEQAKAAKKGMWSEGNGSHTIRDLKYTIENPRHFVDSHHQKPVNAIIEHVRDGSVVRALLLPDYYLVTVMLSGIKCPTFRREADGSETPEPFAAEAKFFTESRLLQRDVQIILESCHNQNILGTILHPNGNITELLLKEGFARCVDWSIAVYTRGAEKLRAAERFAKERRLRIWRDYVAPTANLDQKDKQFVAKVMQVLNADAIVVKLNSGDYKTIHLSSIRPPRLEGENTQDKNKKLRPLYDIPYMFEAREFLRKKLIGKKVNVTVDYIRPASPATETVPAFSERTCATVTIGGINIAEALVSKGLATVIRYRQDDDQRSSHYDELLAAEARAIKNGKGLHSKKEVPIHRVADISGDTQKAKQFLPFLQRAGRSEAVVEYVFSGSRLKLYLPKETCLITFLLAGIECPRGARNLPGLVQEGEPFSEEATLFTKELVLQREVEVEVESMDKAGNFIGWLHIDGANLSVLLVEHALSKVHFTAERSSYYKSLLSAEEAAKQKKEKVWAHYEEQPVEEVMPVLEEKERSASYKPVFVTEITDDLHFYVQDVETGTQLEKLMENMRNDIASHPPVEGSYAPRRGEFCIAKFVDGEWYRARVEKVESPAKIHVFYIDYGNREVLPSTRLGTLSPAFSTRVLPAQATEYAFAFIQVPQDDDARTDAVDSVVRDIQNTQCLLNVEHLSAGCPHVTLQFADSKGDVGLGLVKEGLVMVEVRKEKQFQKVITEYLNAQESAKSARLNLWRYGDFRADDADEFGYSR
# T3: murine SND1, wild type (mouse, UniProt Q78PY7 1-910)
# T3 construct: Endogenous protein of murine PyMT mammary tumor cells; also called SND1 (in PyMT tumor cells); WT shRNA-resistant murine SND1
# T3 sequence (looked up): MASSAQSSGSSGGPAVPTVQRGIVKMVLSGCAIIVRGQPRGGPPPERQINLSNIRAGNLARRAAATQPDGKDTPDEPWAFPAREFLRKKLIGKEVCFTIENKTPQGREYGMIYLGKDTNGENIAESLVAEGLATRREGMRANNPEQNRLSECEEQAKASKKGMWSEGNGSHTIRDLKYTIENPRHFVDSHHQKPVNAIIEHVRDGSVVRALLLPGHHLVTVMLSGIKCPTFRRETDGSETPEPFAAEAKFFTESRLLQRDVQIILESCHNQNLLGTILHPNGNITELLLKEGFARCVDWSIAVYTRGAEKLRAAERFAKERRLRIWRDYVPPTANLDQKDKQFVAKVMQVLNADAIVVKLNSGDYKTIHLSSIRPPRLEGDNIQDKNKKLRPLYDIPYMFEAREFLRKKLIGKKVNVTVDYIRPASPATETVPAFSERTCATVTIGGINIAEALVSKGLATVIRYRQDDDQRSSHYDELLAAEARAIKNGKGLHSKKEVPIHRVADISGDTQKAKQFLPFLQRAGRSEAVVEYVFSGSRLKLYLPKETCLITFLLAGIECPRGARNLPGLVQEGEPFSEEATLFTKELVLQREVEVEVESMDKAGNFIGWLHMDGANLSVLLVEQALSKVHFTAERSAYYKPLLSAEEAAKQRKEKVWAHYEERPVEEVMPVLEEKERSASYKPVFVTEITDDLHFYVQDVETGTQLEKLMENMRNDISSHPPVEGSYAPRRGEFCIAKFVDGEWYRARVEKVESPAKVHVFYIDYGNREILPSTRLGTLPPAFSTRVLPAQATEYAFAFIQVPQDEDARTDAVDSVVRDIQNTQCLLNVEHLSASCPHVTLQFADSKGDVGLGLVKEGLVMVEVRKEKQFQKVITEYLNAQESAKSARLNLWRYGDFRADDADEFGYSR
# B1: GST-MTDH 406-470 (other)
# fusion protein: DEERASLLKSQEPIPDDQKVSDDDKEKGEGALPTGKSKKKKKKKKKQGEDNSTAQDTEELEKEIR
# B2: Peptide-401A (PNSDWNAPAEEAGNW) (peptide)
# peptide: PNSDWNAPAEEAGNW
# notes: also called peptide comprising the single point mutation W401A
# B3: W398D* (other, mouse, UniProt Q80WJ7 1-579, looked up)
# single chain: MAARSWQDELAQQAEEGSARLRELLSVGLGFLRTELGLDLGLEPKRYPGWVILVGTGALGLLLLFLLGYGWAAACAGARKKRRSPPRKREEAAPPTPAPDDLAQLKNLRSEEQKKKNRKKLPEKPKPNGRTVEVPEDEVVRNPRSITAKQAPETDKKNEKSKKNKKKSKSDAKAVQNSSRHDGKEVDEGAWETKISHREKRQQRKRDKVLTDSGSLDSTIPGIENIITVTTEQLTTASFPVGSKKNKGDSHLNVQVSNFKSGKGDSTLQVSSRLNENLTVNGGGWSEKSVKLSSQLSEEKWNSVPPASAGKRKTEPSAWTQDTGDTNANGKDWGRNWSDRSIFSGIGSTAEPVSQSTTSDYQWDVSRNQPYIDDEWSGLNGLSSADPSSDWNAPAEEDGNWVDEDRASLLKSQEPISNDQKVSDDDKEKGEGALPTGKSKKKKKKKKKQGEDNSHTQDTEDLEKDTREELPVNTSKARPKQEKACSLKTMSTSDPAEVLIKNSQPVKTLPPAISAEPSITLSKGDSDNSSSQVPPMLQDTDKPKSNAKQNSVPPSQTKSETNWESPKQIKKKKKARRET
# notes: point mutant W398D, murine numbering; named in the legend's footnote and on the sheet; also called mouse W398D MTDH (corresponds to human W401D MTDH)
# Key:
# [1] = target: T1, His6-SND1ΔC (SND1 residues 1-339); experiment: schematic that sums up the GST pull-downs of His6-SND1ΔC
# Text: FIGS. 7A-E represents determination of key regions and residues mediating the MTDH-SND1 interaction. (FIG. 7A) Schematics of MTDH fragments and mutants with indicated SND1-binding capability. + indicates binding and − indicates no binding based on results shown below. Two putative nuclear localization signals are residues 432-451 for NLS2 and residues 561-580 for NLS3. […] (FIG. 7B) Pulldown of His6-SND1ΔC by GST-tagged MTDH fragments with indicated boundaries. The bound proteins were examined by SDS-PAGE and visualized by Coomassie blue staining. […] For (FIG. 7B) and (FIG. 7C), 1/10 of the His6-SND1ΔC input was shown, and GST alone was used as a negative control. Representative results of 3 independent experiments are shown. (FIG. 7D, FIG. 7E) Lysates from HEK293T cells expressing the indicated ectopic human SND1, AGO2 or MTDH were immunoprecipitated with anti-Myc and immunoblotted with the indicated antibodies.
# To further test whether the physical interaction with SND1 is critical for the function of MTDH, detailed analysis on the interaction of the proteins was conducted. SND1 contains four N-terminal Staphylococcal nuclease (SN) repeats and a C-terminal Tudor-SN hybrid domain. […] This allowed us to use the SND1ΔC fragment for the following in vitro binding studies.
# [2] = target: T2, HA-SND1, full-length human, wild type; experiment: competition in co-IP, 50 uM peptide; competitor MTDH
# Experimental: 293 T cells were co-transfected with HA-SND1 and MYC-MTDH. After 48 hours, the cells were collected and subject to immunoprecipitation assay. Cell lysate was incubated with anti-HA antibody or IgG overnight followed by a two hour incubation with Protein A/G beads to pull down HA-SND1 protein. The beads were washed with lysis buffer and split into five fractions.
# The elution fractions and beads were collected for western blot. (FIGS. 26C and 26D) Cell lyaste was split into 6 fractions. One of the fractions was incubated with IgG and the rest were incubated with anti-HA antibody plus either buffer or indicated peptides. After 24 hours, the lysate was incubated with Protein A/G beads then the beads was washed followed by wash buffer. 50 uM of peptides was used in all the assays.
# murine SND1, wild type = target: T3, murine SND1, wild type; experiment: anti-MTDH co-IP from PyMT;Mtdh-/- MECs reconstituted with murine MTDH, western blot
# Experimental: (FIG. 8A, FIG. 8E) Lysates from PyMT;Mtdh−/− MECs reconstituted with vector control, WT or mutant murine MTDH were immunoprecipitated with anti-MTDH antibody and immunoblotted for indicated proteins. (FIG. 8B, FIG. 8F) Mammosphere assays were performed with PyMT;Mtdh−/− pMECs reconstituted with indicated Mtdh constructs. (FIG. 8C, FIG. 8D, FIG. 8G, FIG. 8H) In vivo tumor formation (FIG. 8C, FIG. 8G for tumor incidence; FIG. 8D, FIG. 8H for tumor volumes) were performed at limiting numbers using PyMT;Mtdh−/− pMECs reconstituted with indicated WT or mutant MTDH. *Note: mouse W391D MTDH corresponds to human W394D MTDH; and mouse W398D MTDH corresponds to human W401D MTDH. Statistics: (FIG. 8B, […]) Student's t-test. (FIG. 8C, FIG. 8G) Limiting dilution analysis. (FIG. 8D, FIG. 8H) Mann-Whitney test. Data represent mean±SEM. ***p<0.001, **p<0.01, *p<0.05.
# Immunoprecipitation and western blot For immunoprecipitation (IP) experiments, cultured cells were washed in cold PBS and lysed in lysis buffer (20 mM Tris pH 7.4, 0.15 M NaCl, 1 mM EDTA, 1 mM EGTA, 1% Tx-100, 0.0025 M Na2P2O7, 1 mM α-glycerolphosphate, 1 mM Na3VO4, and 1 mM NaF) with an EDTA-free protease inhibitor mixture (Roche Applied Science) and PMSF. Cell lysates were then incubated on ice for 10 min, centrifuged, and precleared by incubating with protein A/G beads (Santa Cruz Biotechnology) for 1 h at 4° C. […]
binder,measurement,setting,value
B1,binding result,[1],no binding
B2,effectiveness in blocking the MTDH-SND1 interaction relative to the wild type peptide,[2],~0.5 fold of wild type peptide
B3,binding result,"murine SND1, wild type",no binding
